How the values were obtained:
[1] = biological target: TIR1 receptor protein with 6 His, maltose-binding protein (MBP) and FLAG affinity tags, expressed in insect cell culture using a recombinant baculovirus (UniProt Q570C0); test: SPR; with 2,4-D
[2] = biological target: TIR1 receptor protein with 6 His, maltose-binding protein (MBP) and FLAG affinity tags, expressed in insect cell culture using a recombinant baculovirus (UniProt Q570C0); test: SPR; with dicamba
[3] = biological target: TIR1 receptor protein with 6 His, maltose-binding protein (MBP) and FLAG affinity tags, expressed in insect cell culture using a recombinant baculovirus (UniProt Q570C0); test: SPR; with IAA (auxin)

## biotinylated Sisymbrium orientale IAA2 wild-type degron peptide
[1]
  koff: 1.93E-03 ?
[2]
  koff: 3.29E-02 ?
[3]
  koff: 2.08E-04 ?

## biotinylated Sisymbrium orientale IAA2Δ27 degron peptide (9 amino acid deletion in the degron tail)
[1]
  koff: 2.71E-03 ?
[2]
  koff: 4.04E-02 ?
[3]
  koff: 5.01E-04 ?

From patent US20220127633A1
